Reference: patent US20150259426A1 (Novartis, published 2015)
Changes are numbered by the printed parent chain.

Columns and labels:
[1] = target: T1, cell-bound cynomolgus DR5 (CHO-K1 cells transfected with the full length cynoDR5 gene) (cynomolgus); experiment: FACS, periplasmic extract on CHO-K1 cells expressing cynomolgus DR5, anti-myc detection
T1 construct: whole, on cells

[2] = target: T2, cynomolgus DR5-Fc fusion protein (cyno DR5 amino acids 56 to 213 fused with human IgG1 Fc) (cynomolgus; human); experiment: ELISA, periplasmic extract, plate coated with cynomolgus DR5-Fc, anti-myc detection
[3] = target: T2, cynomolgus DR5-Fc fusion protein (cyno …); experiment: SPR (Biacore), CM5 chip coated with cynomolgus DR5-Fc, 1 to 100 nM NB construct
[4] = target: cynomolgus DR5 (construct used not stated) (cynomolgus); experiment: SPR kinetics, cynomolgus DR5
[5] = target: T3, cell-bound human DR5 (Colo205 and other human cell lines) (human, UniProt O14763 56-440); experiment: FACS, periplasmic extract on Colo205 cells, anti-myc detection
T3 construct: endogenous DR5 of the cell lines

[6] = target: T4, DR5-54 (human DR5 residues 54 to 183, gp67DR5a54-s183-PH) (human, UniProt O14763 54-183); experiment: complex isolated by gel filtration, then crystallized
T4 construct: expressed in SF9 cells, cleaved with PreScission protease; the complex with 11H6 was treated with trypsin before crystallization

[7] = target: T3, cell-bound human DR5 (Colo205 and other …); experiment: cell-based or functional assay
[8] = target: T5, short (182 amino acids) human DR5-Fc fusion protein (R&D Systems, catalogue #631-T2/CF) (human, UniProt O14763 56-210); experiment: SPR (Biacore), CM5 chip coated with human DR5-Fc, 1 to 100 nM NB construct
T5 construct: bought; not shown: Fc part of the bought fusion protein; not described

[9] = target: T3, cell-bound human DR5 (Colo205 and other …); experiment: cell-based or functional assay; remark: listed apart in the source
[10] = target: T6, DR5-61 (human DR5 residues 61 to 183, gp67DR5l61-s183-PH) (human); experiment: complex isolated by gel filtration, then crystallized
T6 construct: expressed in SF9 cells, cleaved with PreScission protease
T6 chain: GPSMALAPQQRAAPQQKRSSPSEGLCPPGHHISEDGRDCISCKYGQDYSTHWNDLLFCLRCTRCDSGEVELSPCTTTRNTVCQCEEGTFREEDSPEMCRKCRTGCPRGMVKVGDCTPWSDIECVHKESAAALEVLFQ

[11] = target: cynomolgus DR5 (construct used not stated) (cynomolgus); experiment: SPR kinetics (Biacore), cynomolgus DR5
[12] = target: T1, cell-bound cynomolgus DR5 (CHO-K1 cells …); experiment: FACS saturation binding, apparent KD, cell-bound cynomolgus DR5
[13] = target: T3, cell-bound human DR5 (Colo205 and other …); experiment: FACS saturation binding, apparent KD, cell-bound human DR5

B1: 11H6 (monomeric anti-DR5 NB construct) (VHH)
VHH: EVQLVESGGGLVQPGGSLRLSCAASGTFDKINNMGWYRQAPGKQRDLVAQITPGGITDYADSVKGRFTISRDNAKDTMYLQMNSLKPEDTAVYFCNAEILKRAYIDVYVNYWGQGTQVTVSS
notes: llama VHH; periplasmic extract or purified monovalent material from E. coli; also called 11H6 parent; wild type 11H6; not shown: C-terminal c-myc tag and (His)6 tag coded by the vector
mean count fluorescence [1]: 292
ABS405 nm [2]: 0.133 ABS405 nm
Kd [3]: 9.2 µM
Kd [4]: 320 nM
mean count fluorescence [5]: 723

B2: 11H6 hu, pAX100-11H6 (monomeric NB construct for crystallography) (VHH)
VHH: B1 VHH with V5L, A74S, D76N, M78L, K86R, F94Y, Q117L
notes: the complex with DR5-54 was treated with trypsin before crystallization
binding result [6]: binds

B3: 11H6-hu (monovalent humanized variant of 11H6) (VHH)
VHH: B1 VHH with V5L, A74S, D76N, M78L, K86R, F94Y, Q117L
notes: purified monovalent material
Kd [4]: 170 nM

B4: 10F1 tetra (tetravalent anti-DR5 NB construct) (other)
chain: EVQLVESGGGLVQPGGSLRLSCAASGFTFSRYWMYWVRQAPGKGLEWVSAINSGGGDTYYRDSVRGRFTISRDNFKNTLYLQMNSLKSEDTAVYYCAKAEGPPTFSLIRTMTVDPGAQGTQVTVSSGGGGSGGGGSGGGGSGGGGSGGGGSGGGGSGGGGSEVQLVESGGGLVQPGGSLRLSCAASGFTFSRYWMYWVRQAPGKGLEWVSAINSGGGDTYYRDSVRGRFTISRDNFKNTLYLQMNSLKSEDTAVYYCAKAEGPPTFSLIRTMTVDPGAQGTQVTVSSGGGGSGGGGSGGGGSGGGGSGGGGSGGGGSGGGGSEVQLVESGGGLVQPGGSLRLSCAASGFTFSRYWMYWVRQAPGKGLEWVSAINSGGGDTYYRDSVRGRFTISRDNFKNTLYLQMNSLKSEDTAVYYCAKAEGPPTFSLIRTMTVDPGAQGTQVTVSSGGGGSGGGGSGGGGSGGGGSGGGGSGGGGSGGGGSEVQLVESGGGLVQPGGSLRLSCAASGFTFSRYWMYWVRQAPGKGLEWVSAINSGGGDTYYRDSVRGRFTISRDNFKNTLYLQMNSLKSEDTAVYYCAKAEGPPTFSLIRTMTVDPGAQGTQVTVSS
notes: four VHH units in one chain joined by GlySer linkers; not shown: C-terminal c-myc/His6 tag from vector pAX51
EC50, caspase 3/7 in Colo205 tumor after a single dose in mice, indirect response model [7]: 0.365 ng/mg tissue
Kd [3]: 2.2e-05 µM
Kd [8]: 3.9 pM
IC50, cell survival, 184A1 [9]: ≥ 20 nM
IC50, cell survival, A549 [9]: ≥ 20 nM
IC50, cell survival, ARPE-19 [9]: ≥ 20 nM
IC50, cell survival, BxPC-3 [9]: 3 pM
IC50, cell survival, Colo205 [9]: 2 pM
IC50, cell survival, H226 [9]: 24 pM
IC50, cell survival, H2052 [9]: 4 pM
IC50, cell survival, H2122 [9]: 1 pM
IC50, cell survival, HAAE-1 [9]: ≥ 20 nM
IC50, cell survival, Huvec [9]: ≥ 20 nM
IC50, cell survival, Jurkat [9]: 3 pM
IC50, cell survival, M30 [9]: ≥ 20 nM
IC50, cell survival, Malme-3 [9]: ≥ 20 nM
IC50, cell survival, MiaPaCa-2 [9]: 28 pM
IC50, cell survival, Molt4 [9]: 2 pM
IC50, cell survival, Panc-1 [9]: 9 pM
IC50, cell survival, WI-38 [9]: ≥ 20 nM

B5: 4E6 hu, pAX111-4E6 (monomeric NB construct for crystallography) (VHH)
VHH: EVQLLESGGGLVQPGGSLRLSCAASGRTFGSIRVGWFRQAPGKGREFVSAINRNDGTTYYADSVKGRFTISRDNSKNTVYLQMNSLRPEDTAVYYCAAGLQYNRAADRVPVGAVYWGQGTLVTVSS
binding result [10]: binds

B6: 4E6-hx (monovalent; humanized FR regions of 4E6-Hu with the CDR3 of 4E6), produced in E. coli (VHH)
VHH: B5 VHH with A105S
Kd [11]: 3.4 nM
Kd [12]: 7.1 nM
Kd [13]: 0.34 nM
